Test results published in patent US20250074972A1, “ANTIBODIES AND METHODS FOR GENERATING THE SAME” (priority 2021, published 2025).
“Also recorded” adds a separate entry of the source.

B1: 1B11 scAb: anti-Pga31 single chain antibody from naive human library; amino acid sequence SEQ ID NO: 2 (protein)
scFv: EVQLLESGGGVVQPGRSLRLSCAASGFTFSSYGMHWVRQAPGKGLEWVAVISYDGSNKYYADSVKGRFTISRDNSKNTLYLQMNSLRAEDTAVYYCARDRSGWGSLDYWGQGTLVTVSSLEGGGGSGGGGSGGGASDIVMTQSPDSLAVSLGERATINCKSSQNVLYSSNNKNYLAWYQQKSGQPPKLLIYWASTRESGVPDRFSGSGSGTDFTLTISSLQAEDVAVYYCQQYYSTPRTFGQGTKVEIK
modifications: 1B11 Amino Acid Sequence

Legend:
[1] = system: C. albicans (SC5314); test: Galleria mellonella infection model, C. albicans; type: in vivo, Candida albicans; details: for survival of larvae: Galleria mellonella infected with 5×10^5 C. albicans, monitored 60 h, Mantel-Cox p<0.0001
Description: (§1) Galleria mellonella is a reliable infection model to test and compare antibody efficacy by monitoring the survival of the larvae. Ten Galleria mellonella larvae (Livefoods Direct Ltd, Sheffield, UK) with bodyweights of =250-300 mg were used for each test group and standardised inoculum of 5×10^5 C. albicans and 5×10^7 C. auris yeast cells/larvae were injected using Hamilton syringe (Cole-Parmer, UK, washed twice with 100% ethanol and sterile dH2O between every 5 injections) via the last pro-leg. Two control groups, one with no injection and the second with PBS injection were also set up. After injection, larvae were incubated for 48-60 h at 37° C. Survival was monitored first after 24 h and then every 6 h. A Kaplan-Meier plot was generated to assess the survival of larvae infected with C. albicans and C. auris, monitoring the survival rate for 60 h (FIG. 8).
(§2) In addition, the fungal burden of various test groups was calculated by measuring the number of colony forming units (CFU) as an indicator of fungal growth within the larvae and early fungicidal/fungistatic activity of the antibody. […] (FIG. 9A).

[2] = system: Candida albicans strain SC5314; test: Mouse model of disseminated Candidiasis, Study 1; type: in vivo; details: caspofungin 1 mg/kg at 24 h post-infection; p=0.004
Description: In study 1, the protective effect of mAb 1B11 as a prophylactic agent with single dosing before and after the administration of fungal inoculum was investigated. Female BALB/c mice, 7-9 weeks old were purchased from Envigo Ltd. and randomly assigned to groups of 6 for treatment and control. The Candida albicans inoculum was prepared by growing strain SC5314 in NGY medium for 16 h, shaking at 30° C. Cells were harvested and washed with saline, then counted and resuspended in saline to provide an inoculum of approx. 2×10^4 CFU/g mouse body weight in 100 μl. Mice were infected intravenously.
Actual inoculum level was determined by plating dilutions of the inoculum on Sabouraud dextrose agar and incubating overnight at 30° C. It was determined to be 2.2×10^4 CFU/g mouse body weight.
Animals were allocated into four main groups as explained below. The treatment dose of 1B11 mAb was 15 mg/kg per mouse. All treatments were administered intraperitoneally (IP) in 150 μl saline. […]
Mice were monitored and weighed every day and were culled on day 4 post-infection and the kidneys removed aseptically. […] Burdens were determined by plating out kidney homogenate and counting colonies after 48 h growth at 30° C. […]

[3] = system: Candida albicans strain SC5314; test: Mouse model of disseminated Candidiasis, Study 3; type: in vivo; details: 1 mg/kg at 24 h and 72 h post-infection; day 7
Description: In study 3, the protective effect of mAb 1B11 as a prophylactic agent with single dosing 3 hours before infection followed by two dosing 24 h and 72 h post infection was investigated.
In addition, a treatment only arm with the administration of 1B11 mAb 24 h and 72 h post infection was also included.
Animals were allocated into four main groups as explained below. The treatment dose of 1B11 mAb was 12.5 mg/kg per mouse. All treatments were administered intraperitoneally (IP) in 200 μl saline.
The study plan is shown in FIG. 19 and is as follows: • Group 1—Pre-treatment with 1B11 mAb at 3 h before infection, followed by treatment at 24 h and 72 h post-infection. • Group 2—Injected with saline at 3 h before infection, treatment with 1B11 at 24 h and 72 h post-infection. • Group 3—Saline injections at all three time points • Group 4—caspofungin treatment (1 mg/kg) at 24 h and 72 h post-infection
Mice were monitored and weighed every day and were culled on day 7 post-infection and the kidneys removed aseptically. Kidneys were split […], with one half of each kidney used to determine burdens, one half frozen on OCT and one half fixed in formalin at 4° C. Burdens were determined by plating out kidney homogenate and counting colonies after 48 h growth at 30° C. Statistical comparisons were carried out using IBM SPSS version 24. […]

[4] = system: total cell lysates of WT C. albicans (SC5314); test: Pga31 scAbs binding ELISA on total cell lysates of WT C. albicans treated with or without caspofungin; design: species or system Candida albicans; details: absorbance 450 nm, cells treated or untreated with 0.032 μg/ml caspofungin
Description: (§3) The reaction was stopped using 1 M H2SO4 and the absorbance values measured using a microplate reader at absorbance 450 nm. For total cell lysate ELISA, C. albicans WT and pga31 single mutant strain overnight cultures were inoculated into fresh YPD at OD600 nm of 0.1-0.2, grown for 3-4 h at 30° C. until OD of 0.5-0.6 was reached and then treated with caspofungin (0.032 μg/ml) for 90 min. After 90 min growth cells were harvested, centrifuged for 5 min at 4000 rpm and washed and cell lysate was prepared. This was used to coat ELISA plates at 37° C. for 1 h, plates were washed and blocked with 2% MPBS as before, followed by the two-fold serial dilution of scAb samples.

[5] = system: cell lysates of pga314 mutant strain; test: Pga31 scAbs binding ELISA on cell lysates of pga31 mutant strain; design: species or system Candida albicans; details: with or without 0.032 μg/ml caspofungin
Description: as §3

[6] = system: C. albicans (SC3514); test: Biofilm formation assay (crystal violet), C. albicans; type: cell-based, Candida albicans
Description: (§4) The ability of 1B11 scAb in preventing the formation of biofilm in C. albicans ([…]) and C. auris (1716) was tested. The growth medium used were RPMI and 20% Foetal Calf Serum (FCS) and the assay was carried out in 96 well microtitre plates. Test antibody 1B11 scAb at a starting concentration of 160 μg/ml was double diluted down the plate and the top row served as positive control with cells only. The final number of cells added to each well was kept constant at 1×10^5/ml and the plate was incubated at 37° C. for 24 h. Following incubation, the biofilm plate was gently washed two times with PBS to remove non-adhering cells and allowed to dry at room temperature overnight. The biofilm was stained with 100 μl 0.05% crystal violet for 20 min followed by washing with Millipore Q water and 200 ul of 100% ethanol. Contents of each well were transferred to a new plate and absorbance was read at 570 nm wavelength.

[7] = system: C. auris (1716); test: Biofilm formation assay (crystal violet), C. auris; type: cell-based, Candida auris
Description: as §4

[8] = system: C. auris (1716); test: Galleria mellonella infection model, C. auris; type: in vivo, Candida auris; details: for survival of larvae: Galleria mellonella infected with 5×10^7 C. auris, monitored 60 h, versus non-treated, Mantel-Cox p<0.0001
Description: as §1, §2

[9] = at higher concentrations (start 160 μg/ml, double diluted), 24 h incubation

Molecule | survival of larvae [1] | kidney organ burdens compared to saline treated mice [2] | kidney burdens, caspofungin group compared to saline treated group [3] | scAb binding to lysates of caspofungin treated versus untreated cells [4] | scAb binding to mutant strain lysate [5] | C. albicans growth under biofilm-inducing conditions ([6]; 24 h, especially in 20% foetal calf serum) | biofilm biomass (crystal violet) compared to the control ([6]; RPMI conditions, T test, p<0.0001) | biofilm formation [6, 9] | C. auris growth under biofilm-inducing conditions ([7]; 24 h, RPMI or 20% FCS) | biofilm formation [7, 9] | biofilm biomass (crystal violet) compared to the control ([7]; both RPMI and 20% FCS conditions, T-test, p<0.0001, p<0.0004) | fungal burden (colony forming units) in larvae ([8]; 4 h and 24 h incubation, versus non-treatment group) | survival of larvae [8] | survival of larvae ([8]; listed as anti-Pga31 antibody) | fungal burden (colony forming units) in larvae ([1]; versus non-treatment group, statistically significant in 24 h group)
CC[C@H](C)C[C@H](C)CCCCCCCCC(=O)N[C@H]1C[C@@H](O)[C@@H](NCCN)NC(=O)[C@@H]2[C@@H](O)CCN2C(=O)[C@H]([C@H](O)CCN)NC(=O)[C@H]([C@H](O)[C@@H](O)c2ccc(O)cc2)NC(=O)[C@@H]2C[C@@H](O)CN2C(=O)[C@H]([C@@H](C)O)NC1=O [caspofungin, reference compound] | significant survival percentage; also recorded: only had marginal effect | significant decrease | highly significant difference | – | – | – | – | – | – | – | – | – | – | – | –
B1 | significant survival percentage | – | – | increase in scAb binding | lack of scAb binding | significantly inhibited | significantly different | able to inhibit biofilm formation | did not significantly inhibit C. auris growth under biofilm-inducing conditions except at the highest concentration tested | able to inhibit biofilm formation | significantly different | inhibited; also recorded: notable inhibition of growth | significant survival percentage | survived significantly more | lower level of growth inhibition
